Source: US20050171026

Target: Recombinant His-tagged SF2/ASF (rSF2/ASF) (UniProt Q07955)
Sequence (Q07955 whole entry): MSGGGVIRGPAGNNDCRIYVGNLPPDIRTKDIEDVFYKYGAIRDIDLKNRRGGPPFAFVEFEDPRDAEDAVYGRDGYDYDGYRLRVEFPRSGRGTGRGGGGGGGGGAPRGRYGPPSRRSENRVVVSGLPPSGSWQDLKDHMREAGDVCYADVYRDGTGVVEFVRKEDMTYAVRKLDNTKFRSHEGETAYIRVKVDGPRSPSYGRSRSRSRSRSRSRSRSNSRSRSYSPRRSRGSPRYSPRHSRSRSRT

Glutathione S-transferase-tagged mClk1/Sty (recombinant Clk1/Sty), sequence (chain, as listed by the source): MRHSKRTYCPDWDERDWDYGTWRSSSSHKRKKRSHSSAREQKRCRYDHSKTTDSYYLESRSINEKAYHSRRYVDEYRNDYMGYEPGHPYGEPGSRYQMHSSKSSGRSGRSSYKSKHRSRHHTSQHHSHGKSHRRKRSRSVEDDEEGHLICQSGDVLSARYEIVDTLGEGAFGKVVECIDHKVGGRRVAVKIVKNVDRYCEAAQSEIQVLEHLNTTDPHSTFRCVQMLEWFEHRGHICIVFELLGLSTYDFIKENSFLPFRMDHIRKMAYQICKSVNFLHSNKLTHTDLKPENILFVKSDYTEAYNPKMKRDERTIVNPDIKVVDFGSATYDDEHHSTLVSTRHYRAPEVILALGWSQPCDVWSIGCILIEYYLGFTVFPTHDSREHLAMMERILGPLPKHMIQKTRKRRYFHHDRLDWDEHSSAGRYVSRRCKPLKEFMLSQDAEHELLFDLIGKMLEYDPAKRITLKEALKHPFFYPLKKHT

## Glutathione S-transferase-tagged mClk1/Sty (recombinant Clk1/Sty)
  electrophoretic mobility of rSF2/ASF on SDS-PAGE / Western blot with AK103 (phosphorylation state): rSF2/ASF exhibited reduced electrophoretic mobility in the presence of Clk 1/Sty (FIG. 2A, lane 2) compared with the rSF2/ASF alone
